Measurements reported in patent US20180155407A1 (Sanofi, published 2018).
Numbered stars: 1 amine (or outer) side, 2 acyl side, 3 side chain; on linkers, the order of the positions; unused ones are H or OH. Square brackets hold non-standard residues; d marks the D form. Side chains are listed from the residue outwards. Ends that are not written are not given here. * marks the point of attachment. γGlu = O=C(O)[C@H](CCC(=O)[*:2])N[*:1]; Palmitoyl = CCCCCCCCCCCCCCCC(=O)*; gAAA = not defined here; AEEA = NCCOCCOCC(=O)O; Aib = CC(C)(N)C(=O)O

T1: human GIP receptor (human, UniProt P48546 22-466)
T1 sequence (looked up): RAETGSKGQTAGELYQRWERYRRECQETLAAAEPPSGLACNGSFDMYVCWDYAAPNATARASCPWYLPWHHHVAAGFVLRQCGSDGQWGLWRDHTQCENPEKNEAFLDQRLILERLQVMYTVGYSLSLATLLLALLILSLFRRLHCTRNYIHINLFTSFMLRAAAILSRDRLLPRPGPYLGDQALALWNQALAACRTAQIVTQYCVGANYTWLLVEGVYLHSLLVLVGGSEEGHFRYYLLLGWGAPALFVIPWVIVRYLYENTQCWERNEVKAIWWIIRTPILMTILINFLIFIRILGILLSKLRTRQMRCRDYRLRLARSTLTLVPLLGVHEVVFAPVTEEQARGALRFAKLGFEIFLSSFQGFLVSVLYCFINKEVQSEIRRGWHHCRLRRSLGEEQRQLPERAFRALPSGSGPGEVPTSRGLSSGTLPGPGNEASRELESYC

B1: SEQ ID NO: 21 (peptide)
peptide: H[Aib]QGTFTSDLSKLK([γGlu-AEEA-gAAA-Palmitoyl])EKQRQ[Aib]EFIEWLKA[dA]GHPS[Aib]KPPPK-NH2
modifications: reading uncertain
B2: SEQ ID NO: 22 (peptide)
peptide: H[Aib]QGTFTSDLSKLK([γGlu-AEEA-gAAA-Palmitoyl])EEQRQ[Aib]EFIEWLKAGGHPS[Aib]KPPPK-NH2
modifications: reading uncertain
B3: SEQ ID NO: 20 (peptide)
peptide: H[Aib]QGTFTSDLSKLK([γGlu-AEEA-gAAA-Palmitoyl])EKQRQ[Aib]EFIEWLKAGGHPS[Aib]KPPPK-NH2
modifications: reading uncertain
B4: SEQ ID NO: 19 (peptide)
peptide: H[Aib]QGTFTSDLSKLK([γGlu-γGlu-AEEA-Palmitoyl])EEQRQ[Aib]EFIEWLKA[dA]GHPS[Aib]KPPPK-NH2
modifications: N-terminus assumed
SMILES: CCCCCCCCCCCCCCCC(=O)NCCOCCOCC(=O)N[C@@H](CCC(=O)N[C@@H](CCC(=O)NCCCC[C@H](NC(=O)[C@H](CC(C)C)NC(=O)[C@H](CCCCN)NC(=O)[C@H](CO)NC(=O)[C@H](CC(C)C)NC(=O)[C@H](CC(=O)O)NC(=O)[C@H](CO)NC(=O)[C@@H](NC(=O)[C@H](Cc1ccccc1)NC(=O)[C@@H](NC(=O)CNC(=O)[C@H](CCC(N)=O)NC(=O)C(C)(C)NC(=O)[C@@H](N)Cc1c[nH]cn1)[C@@H](C)O)[C@@H](C)O)C(=O)N[C@@H](CCC(=O)O)C(=O)N[C@@H](CCC(=O)O)C(=O)N[C@@H](CCC(N)=O)C(=O)N[C@@H](CCCNC(=N)N)C(=O)N[C@@H](CCC(N)=O)C(=O)NC(C)(C)C(=O)N[C@@H](CCC(=O)O)C(=O)N[C@@H](Cc1ccccc1)C(=O)N[C@H](C(=O)N[C@@H](CCC(=O)O)C(=O)N[C@@H](Cc1c[nH]c2ccccc12)C(=O)N[C@@H](CC(C)C)C(=O)N[C@@H](CCCCN)C(=O)N[C@@H](C)C(=O)N[C@H](C)C(=O)NCC(=O)N[C@@H](Cc1c[nH]cn1)C(=O)N1CCC[C@H]1C(=O)N[C@@H](CO)C(=O)NC(C)(C)C(=O)N[C@@H](CCCCN)C(=O)N1CCC[C@H]1C(=O)N1CCC[C@H]1C(=O)N1CCC[C@H]1C(=O)N[C@@H](CCCCN)C(N)=O)[C@@H](C)CC)C(=O)O)C(=O)O
B5: SEQ ID NO: 18 (peptide)
peptide: H[Aib]QGTFTSDLSKLK([γGlu-γGlu-AEEA-Palmitoyl])EEQRQ[Aib]EFIEWLKAGGHPS[Aib]KPPPK-NH2
modifications: N-terminus assumed
SMILES: CCCCCCCCCCCCCCCC(=O)NCCOCCOCC(=O)N[C@@H](CCC(=O)N[C@@H](CCC(=O)NCCCC[C@H](NC(=O)[C@H](CC(C)C)NC(=O)[C@H](CCCCN)NC(=O)[C@H](CO)NC(=O)[C@H](CC(C)C)NC(=O)[C@H](CC(=O)O)NC(=O)[C@H](CO)NC(=O)[C@@H](NC(=O)[C@H](Cc1ccccc1)NC(=O)[C@@H](NC(=O)CNC(=O)[C@H](CCC(N)=O)NC(=O)C(C)(C)NC(=O)[C@@H](N)Cc1c[nH]cn1)[C@@H](C)O)[C@@H](C)O)C(=O)N[C@@H](CCC(=O)O)C(=O)N[C@@H](CCC(=O)O)C(=O)N[C@@H](CCC(N)=O)C(=O)N[C@@H](CCCNC(=N)N)C(=O)N[C@@H](CCC(N)=O)C(=O)NC(C)(C)C(=O)N[C@@H](CCC(=O)O)C(=O)N[C@@H](Cc1ccccc1)C(=O)N[C@H](C(=O)N[C@@H](CCC(=O)O)C(=O)N[C@@H](Cc1c[nH]c2ccccc12)C(=O)N[C@@H](CC(C)C)C(=O)N[C@@H](CCCCN)C(=O)N[C@@H](C)C(=O)NCC(=O)NCC(=O)N[C@@H](Cc1c[nH]cn1)C(=O)N1CCC[C@H]1C(=O)N[C@@H](CO)C(=O)NC(C)(C)C(=O)N[C@@H](CCCCN)C(=O)N1CCC[C@H]1C(=O)N1CCC[C@H]1C(=O)N1CCC[C@H]1C(=O)N[C@@H](CCCCN)C(N)=O)[C@@H](C)CC)C(=O)O)C(=O)O
B6: SEQ ID NO: 6 (peptide)
peptide: H[Aib]QGTFTSDLSKLK([γGlu-γGlu-Palmitoyl])EKQRQ[Aib]EFIEWLKAGGPPS[Aib]KPPPK-NH2
modifications: N-terminus assumed
SMILES: CCCCCCCCCCCCCCCC(=O)N[C@@H](CCC(=O)N[C@@H](CCC(=O)NCCCC[C@H](NC(=O)[C@H](CC(C)C)NC(=O)[C@H](CCCCN)NC(=O)[C@H](CO)NC(=O)[C@H](CC(C)C)NC(=O)[C@H](CC(=O)O)NC(=O)[C@H](CO)NC(=O)[C@@H](NC(=O)[C@H](Cc1ccccc1)NC(=O)[C@@H](NC(=O)CNC(=O)[C@H](CCC(N)=O)NC(=O)C(C)(C)NC(=O)[C@@H](N)Cc1c[nH]cn1)[C@@H](C)O)[C@@H](C)O)C(=O)N[C@@H](CCC(=O)O)C(=O)N[C@@H](CCCCN)C(=O)N[C@@H](CCC(N)=O)C(=O)N[C@@H](CCCNC(=N)N)C(=O)N[C@@H](CCC(N)=O)C(=O)NC(C)(C)C(=O)N[C@@H](CCC(=O)O)C(=O)N[C@@H](Cc1ccccc1)C(=O)N[C@H](C(=O)N[C@@H](CCC(=O)O)C(=O)N[C@@H](Cc1c[nH]c2ccccc12)C(=O)N[C@@H](CC(C)C)C(=O)N[C@@H](CCCCN)C(=O)N[C@@H](C)C(=O)NCC(=O)NCC(=O)N1CCC[C@H]1C(=O)N1CCC[C@H]1C(=O)N[C@@H](CO)C(=O)NC(C)(C)C(=O)N[C@@H](CCCCN)C(=O)N1CCC[C@H]1C(=O)N1CCC[C@H]1C(=O)N1CCC[C@H]1C(=O)N[C@@H](CCCCN)C(N)=O)[C@@H](C)CC)C(=O)O)C(=O)O
B7: SEQ ID NO: 23 (peptide)
peptide: H[Aib]QGTFTSDLSKLK([γGlu-AEEA-gAAA-Palmitoyl])EEQRQ[Aib]EFIEWLKA[dA]GHPS[Aib]KPPPK-NH2
modifications: reading uncertain
B8: SEQ ID NO: 7 (peptide)
peptide: H[Aib]QGTFTSDLSKLK([γGlu-γGlu-Palmitoyl])EKQRQ[Aib]EFIEWLKA[dA]GPPS[Aib]KPPPK-NH2
modifications: N-terminus assumed
SMILES: CCCCCCCCCCCCCCCC(=O)N[C@@H](CCC(=O)N[C@@H](CCC(=O)NCCCC[C@H](NC(=O)[C@H](CC(C)C)NC(=O)[C@H](CCCCN)NC(=O)[C@H](CO)NC(=O)[C@H](CC(C)C)NC(=O)[C@H](CC(=O)O)NC(=O)[C@H](CO)NC(=O)[C@@H](NC(=O)[C@H](Cc1ccccc1)NC(=O)[C@@H](NC(=O)CNC(=O)[C@H](CCC(N)=O)NC(=O)C(C)(C)NC(=O)[C@@H](N)Cc1c[nH]cn1)[C@@H](C)O)[C@@H](C)O)C(=O)N[C@@H](CCC(=O)O)C(=O)N[C@@H](CCCCN)C(=O)N[C@@H](CCC(N)=O)C(=O)N[C@@H](CCCNC(=N)N)C(=O)N[C@@H](CCC(N)=O)C(=O)NC(C)(C)C(=O)N[C@@H](CCC(=O)O)C(=O)N[C@@H](Cc1ccccc1)C(=O)N[C@H](C(=O)N[C@@H](CCC(=O)O)C(=O)N[C@@H](Cc1c[nH]c2ccccc12)C(=O)N[C@@H](CC(C)C)C(=O)N[C@@H](CCCCN)C(=O)N[C@@H](C)C(=O)N[C@H](C)C(=O)NCC(=O)N1CCC[C@H]1C(=O)N1CCC[C@H]1C(=O)N[C@@H](CO)C(=O)NC(C)(C)C(=O)N[C@@H](CCCCN)C(=O)N1CCC[C@H]1C(=O)N1CCC[C@H]1C(=O)N1CCC[C@H]1C(=O)N[C@@H](CCCCN)C(N)=O)[C@@H](C)CC)C(=O)O)C(=O)O

Legend:
Experiment in all cases: cell-based or functional assay
[1] = molecular target: human GLP-1 receptor (human) (UniProt P43220)
human GLP-1 receptor (human), sequence (P43220 24-463): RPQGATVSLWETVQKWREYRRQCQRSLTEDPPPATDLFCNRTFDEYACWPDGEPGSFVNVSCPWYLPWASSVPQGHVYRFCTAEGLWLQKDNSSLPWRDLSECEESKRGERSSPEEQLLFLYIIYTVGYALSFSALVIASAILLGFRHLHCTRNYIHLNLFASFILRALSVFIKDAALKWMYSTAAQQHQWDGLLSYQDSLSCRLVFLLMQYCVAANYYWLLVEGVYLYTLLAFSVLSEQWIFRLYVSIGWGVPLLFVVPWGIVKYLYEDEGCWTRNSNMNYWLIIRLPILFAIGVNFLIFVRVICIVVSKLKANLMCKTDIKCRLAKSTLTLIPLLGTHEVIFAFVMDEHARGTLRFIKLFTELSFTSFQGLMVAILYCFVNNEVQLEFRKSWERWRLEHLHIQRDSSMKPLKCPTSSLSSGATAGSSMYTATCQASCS

[2] = molecular target: human glucagon receptor (human) (UniProt P47871)
human glucagon receptor (human), sequence (P47871 26-477): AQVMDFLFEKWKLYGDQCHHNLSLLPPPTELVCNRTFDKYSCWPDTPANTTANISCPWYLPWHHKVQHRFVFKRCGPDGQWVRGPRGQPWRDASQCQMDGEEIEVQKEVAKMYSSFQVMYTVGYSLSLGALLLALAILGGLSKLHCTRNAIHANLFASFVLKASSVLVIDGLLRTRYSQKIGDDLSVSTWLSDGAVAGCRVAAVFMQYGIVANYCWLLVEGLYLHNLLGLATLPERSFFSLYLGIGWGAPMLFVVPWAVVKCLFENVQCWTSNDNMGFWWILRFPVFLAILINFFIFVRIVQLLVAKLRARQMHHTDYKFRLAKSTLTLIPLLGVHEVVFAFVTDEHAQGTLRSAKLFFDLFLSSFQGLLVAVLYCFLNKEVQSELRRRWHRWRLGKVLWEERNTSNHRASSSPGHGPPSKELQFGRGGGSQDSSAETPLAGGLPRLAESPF

human GLP-1 receptor = human GLP-1 receptor (human, UniProt P43220 24-463)
human glucagon receptor = human glucagon receptor (human, UniProt P47871 26-477)
human glucagon receptor, sequence (P47871 26-477): as above

human GIP receptor = molecular target: T1, human GIP receptor

Row | Molecule | EC50 hGLP-1R [pM] (cAMP formation) [1] | EC50 hGlucagon R [pM] (cAMP formation) [2] | EC50 hGLP-1R (cAMP formation) (human GLP-1 receptor) [pM] | EC50 hGlucagon R (cAMP formation) (human glucagon receptor) [pM] | EC50 hGIP R (cAMP formation) (human GIP receptor) [pM]
1 | exendin-4 (peptide) | 0.4 | > 1e+07 | – | – | –
2 | B1 | – | – | 4.2 | 69.9 | 24.6
3 | B2 | – | – | 2.1 | 108 | 6
4 | B3 | – | – | 2.4 | 44 | 12.7
5 | B4 | – | – | 1.9 | 52.2 | 7.9
6 | B5 | – | – | 1.7 | 46.6 | 5.6
7 | B6 | – | – | 2.8 | 16.4 | 7.9
8 | B7 | – | – | 1 | 64.3 | 2
9 | B8 | – | – | 4 | 21.8 | 14.2
